The subject of one data set is [RGRGG]5 peptide. Description: EMSA. Conditions: poly(ADP-ribose), 16 ADP-ribose units; no base sequence; EMSA and anisotropy: 50 mM Tris-HCl pH 7.5, 100 mM KCl, 10 mM beta-mercaptoethanol, 0.1 mg/mL BSA, 2 mM MgCl2, 23 C, 30 min; single-molecule: 20 mM Tris-HCl pH …. On the technique in general: Mobility shift assays separate free from complexed probe on a gel.
Another data set concerns [KGKGG]5 peptide. Description: EMSA. Conditions: poly(ADP-ribose), 16 ADP-ribose units; no base sequence; EMSA and anisotropy: 50 mM Tris-HCl pH 7.5, 100 mM KCl, 10 mM beta-mercaptoethanol, 0.1 mg/mL BSA, 2 mM MgCl2, 23 C, 30 min; single-molecule: 20 mM Tris-HCl pH ….
For a further data set, the system named is [KGYGG]5 peptide. The experiment in a line: EMSA. Conditions: poly(ADP-ribose), 16 ADP-ribose units; no base sequence; EMSA and anisotropy: 50 mM Tris-HCl pH 7.5, 100 mM KCl, 10 mM beta-mercaptoethanol, 0.1 mg/mL BSA, 2 mM MgCl2, 23 C, 30 min; single-molecule: 20 mM Tris-HCl pH ….
A further data set relates to [RGYGG]5 peptide. Description: EMSA. Conditions: poly(ADP-ribose), 16 ADP-ribose units; no base sequence; EMSA and anisotropy: 50 mM Tris-HCl pH 7.5, 100 mM KCl, 10 mM beta-mercaptoethanol, 0.1 mg/mL BSA, 2 mM MgCl2, 23 C, 30 min; single-molecule: 20 mM Tris-HCl pH ….
Another data set has as its system FUS RGG3-PY fragment. Description: fluorescence anisotropy. Particulars: poly(ADP-ribose); length not given in material; EMSA and anisotropy: 50 mM Tris-HCl pH 7.5, 100 mM KCl, 10 mM beta-mercaptoethanol, 0.1 mg/mL BSA, 2 mM MgCl2, 23 C, 30 min; single-molecule: 20 mM Tris-HCl pH …. In general terms: In fluorescence polarisation assays a small probe gives low polarisation when free and higher when bound to something large.

The subject of data set [1] is FUS with all 15 RGG3-PY arginines to alanine. Description: fluorescence anisotropy or EMSA (method not given). Particulars: poly(ADP-ribose); length not given in material; EMSA and anisotropy: 50 mM Tris-HCl pH 7.5, 100 mM KCl, 10 mM beta-mercaptoethanol, 0.1 mg/mL BSA, 2 mM MgCl2, 23 C, 30 min; single-molecule: 20 mM Tris-HCl pH ….
Data set [2] deals with T1, His-MBP-tagged PrLD (prion-like domain) of FUS (Fused in Sarcoma).
T1 chain: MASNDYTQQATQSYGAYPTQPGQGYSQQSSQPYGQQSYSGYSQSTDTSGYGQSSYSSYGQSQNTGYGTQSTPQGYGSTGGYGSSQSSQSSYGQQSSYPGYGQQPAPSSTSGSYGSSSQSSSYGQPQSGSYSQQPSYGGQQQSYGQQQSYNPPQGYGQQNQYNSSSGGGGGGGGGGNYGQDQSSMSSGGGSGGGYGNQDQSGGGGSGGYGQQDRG
Description: BLI. On the technique in general: BLI is a label-free optical method that tracks binding on a fibre tip over time.

In data set [3] the target is T2, His-MBP-tagged PrLD (prion-like domain) of FUS (Fused in Sarcoma).
T2 chain: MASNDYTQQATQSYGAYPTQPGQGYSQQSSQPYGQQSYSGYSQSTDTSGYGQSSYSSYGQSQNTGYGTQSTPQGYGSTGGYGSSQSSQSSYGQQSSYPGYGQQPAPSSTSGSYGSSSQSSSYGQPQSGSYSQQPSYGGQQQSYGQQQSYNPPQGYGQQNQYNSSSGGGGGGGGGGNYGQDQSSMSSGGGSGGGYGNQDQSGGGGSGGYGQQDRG
Description: BLI; His-MBP-tagged PrLD (400 nM) immobilised on HIS1K (anti-His) biosensors; analyte in PBSA (PBS + 0.1% BSA), MBP-tagged CTRR at 0.4, 1, 2, 5 and 12 uM; association 600 s, dissociation 600 s; Octet RED96; association phase fitted to an exponential kinetic binding model. Particulars: both partners purified.

One may read the Kd as a measure of binding affinity in units of concentration. Consider Cy3-PAR 16-mer, for which the Kd in data set [RGRGG]5 peptide was 0.8 µM; in data set [KGKGG]5 peptide it was 24 µM; in data set [KGYGG]5 peptide, 29 µM; in data set [RGYGG]5 peptide, 10 µM.
AF488-PAR (anisotropy) displayed a binding signal (fold weaker than full-length FUS) in the data set with FUS RGG3-PY fragment of 3. In addition, in data set [1], the binding signal (fold weaker than wild-type FUS) worked out at 2.7.

B1: MBP-tagged CTRR (C-terminal RGG-rich region, RGG2-ZnF-RGG3-PY) of FUS (domain or fragment)
chain: RADFNRGGGNGRGGRGRGGPMGRGGYGGGGSGGGGRGGFPSGGGGGGGQQRAGDWKCPNPTCENMNFSWRNECNQCKAPKPDGPGGGPGGSHMGGNYGDDRRGGRGGYDRGGYRGRGGDRGGFRGGRGGGDRGGFGPGKMDSRGEHRQDRRERPY
modifications: MBP tag omitted. Limits are not printed: start taken just after the RRM (285-371), running to the C-terminus (RGG2-ZnF-RGG3-PY). Zn2+ in the RanBP2-type zinc finger. His-MBP tag omitted. Limits are not printed: 1-214 is the conventional FUS PrLD/low-complexity domain, and it includes Y177, which the paper places in the PrLD.
One may read the koff as the rate constant with which the complex falls apart. Lower therefore signals slow dissociation. B1: the koff in data set [2] was 0.00052 s⁻¹.

B2: MBP-tagged CTRR (C-terminal RGG-rich region, RGG2-ZnF-RGG3-PY) of FUS (domain or fragment)
chain: RADFNRGGGNGRGGRGRGGPMGRGGYGGGGSGGGGRGGFPSGGGGGGGQQRAGDWKCPNPTCENMNFSWRNECNQCKAPKPDGPGGGPGGSHMGGNYGDDRRGGRGGYDRGGYRGRGGDRGGFRGGRGGGDRGGFGPGKMDSRGEHRQDRRERPY
modifications: MBP tag omitted. Limits are not printed: start taken just after the RRM (285-371), running to the C-terminus (RGG2-ZnF-RGG3-PY). Zn2+ in the RanBP2-type zinc finger. / His-MBP tag omitted. Limits are
B2: the Kd in data set [3] is 1.37 µM.
